Experimental data: US6083709

What was measured:
Test in all cases: p53 two-site sandwich ELISA, sample tested at 100 ng/ml
[1] = molecular target: bInsulin (bovine (by the printed prefix b; not spelled out)) (UniProt P01317)
[2] = molecular target: hG-CSF (human (by the printed prefix h; not spelled out)) (UniProt P09919)
[3] = molecular target: hPDGF (human (by the printed prefix h; not spelled out))
[4] = molecular target: hTransferin (human (by the printed prefix h; not spelled out)) (UniProt P02787)
[5] = molecular target: hrGM-CSF (human (by the printed prefix hr; not spelled out)) (UniProt P04141)
[6] = molecular target: hrIGF-1 (human (by the printed prefix hr; not spelled out)) (UniProt P05019)
[7] = molecular target: hrIL-1α (human (by the printed prefix hr; not spelled out)) (UniProt P01583)
[8] = molecular target: hrIL-1β (human (by the printed prefix hr; not spelled out)) (UniProt P01584)
[9] = molecular target: hrIL-2 (human (by the printed prefix hr; not spelled out)) (UniProt P60568)
[10] = molecular target: hrIL-3 (human (by the printed prefix hr; not spelled out)) (UniProt P08700)
[11] = molecular target: hrIL-4 (human (by the printed prefix hr; not spelled out)) (UniProt P05112)
[12] = molecular target: hrIL-6 (human (by the printed prefix hr; not spelled out)) (UniProt P05231)
[13] = molecular target: hrTNFα (human (by the printed prefix hr; not spelled out)) (UniProt P01375)

Assay Results (apparent mutant p53 read in the p53 ELISA) [1]: < 50 pg/mL
Assay Results (apparent mutant p53 read in the p53 ELISA) [2]: < 50 pg/mL
Assay Results (apparent mutant p53 read in the p53 ELISA) [3]: < 50 pg/mL
Assay Results (apparent mutant p53 read in the p53 ELISA) [4]: < 50 pg/mL
Assay Results (apparent mutant p53 read in the p53 ELISA) [5]: < 50 pg/mL
Assay Results (apparent mutant p53 read in the p53 ELISA) [6]: < 50 pg/mL
Assay Results (apparent mutant p53 read in the p53 ELISA) [7]: < 50 pg/mL
Assay Results (apparent mutant p53 read in the p53 ELISA) [8]: < 50 pg/mL
Assay Results (apparent mutant p53 read in the p53 ELISA) [9]: < 50 pg/mL
Assay Results (apparent mutant p53 read in the p53 ELISA) [10]: < 50 pg/mL
Assay Results (apparent mutant p53 read in the p53 ELISA) [11]: < 50 pg/mL
Assay Results (apparent mutant p53 read in the p53 ELISA) [12]: < 50 pg/mL
Assay Results (apparent mutant p53 read in the p53 ELISA) [13]: < 50 pg/mL
Substance: monoclonal antibody from clone PAb240
